Laboratory results reported in IntAct's records for PubMed 20388642.

B1: Ras-related protein Rab-8A (Homo sapiens), P61006 (parent)
chain: MAKTYDYLFKLLLIGDSGVGKTCVLFRFSEDAFNSTFISTIGIDFKIRTIELDGKRIKLQIWDTAGQERFRTITTAYYRGAMGIMLVYDITNEKSFDNIRNWIRNIEEHASADVEKMILGNKCDVNDKRQVSKERGEKLALDYGIKFMETSAKANINVENAFFTLARDIKAKMDKKLEGNSPQGSNQGVKITPDQQKRSSFFRCVLL

Variants of: B1
Conditions: with optn_human OPTN

| effect of a mutation on the interaction | Variant |
| --- | --- |
| decreasing interaction | T22N |
